Assay results taken from US20260232826A1, “ANTIBODY-DRUG CONJUGATES AND THEIR USES” (Mablink Bioscience, priority 2022, published 2026).
Entries after “also recorded” stand apart in the source; their conditions may differ.

Experiments:
[1] = target: T1, recombinant human FRα (Homo sapiens, UniProt P15328); test: Recombinant FRα-binding affinity by ELISA (human); settings: FIG. 4A/4B
T1 construct: purchased Sino Biological 11241-H08H
Procedure: Sandwich ELISA assays are performed using 96-well high-binding ELISA plates (Corning Inc., New York, NY, USA, Cat #3590). Plates are coated using 100 µL/well of recombinant human FRα protein (Sino Biological cat #11241-H08H) in PBS (pH 7.4) at 2 μg/mL and incubated overnight at 4° C. After 2 washes with PBS-T (PBS+0.05% Tween-20), the plates are blocked with 200 μL/well of incubation buffer (PBS-T+0.1% BSA) for 1 h at room temperature. The plates are washed 4 times with PBS-T, and 100 μL of a threefold dilution series of tested compound (antibody or antibody-drug conjugate) is added. Then, the plates are incubated for 2 h at room temperature in the dark. After 5 washes with PBS-T, plates are incubated 1 h at room temperature with 100 μL/well of a goat anti-human IgG (H+L) HRP conjugated antibody (Jackson Immunoresearch cat #109-035-088), previously diluted 1:250000 in incubation buffer. After 5 washes with PBS-T, TMB substrate solution (Thermo-Fisher cat #N301) is added. Peroxidase activity is stopped with 0.18M H2SO4 and absorbance is read at 450 nm (reference wavelength 650 nm) using a Thermo Scientific MultiSkan EX microplate reader. Sigmoidal fittings were performed using GraphPad Prism 9 software.
Sandwich ELISA assays were performed using 96-well high-binding ELISA plates (Corning Inc., New York, NY, USA, Cat #3590). Plates were coated using 100 μL/well of recombinant human FRα protein (Sino Biological cat #11241-H08H); recombinant cynomolgus FRα protein (Sino Biological cat #90950-C08H); recombinant rat FRα protein (Sino Biological cat #81073-R08H) or recombinant mouse FRα protein (Sino Biological cat #50573-M08H) in PBS (pH 7.4) at 2 μg/mL and incubated overnight at 4° C. After 2 washes with PBS-T (PBS+0.05% Tween-20), the plates were blocked with 200 μL/well of incubation buffer (PBS-T+0.1% BSA) for 1 h at room temperature. […] Peroxidase activity was stopped with 0.18M H2SO4 and absorbance was read at 450 nm (reference wavelength 650 nm) using a Thermo Scientific MultiSkan EX microplate reader. […]

[2] = target: T1, recombinant human FRα; test: Human FRα-binding affinity by SPR (Biacore); settings: Biacore T200, 25° C. (FIG. 5)
Procedure: Surface plasmon resonance (SPR) experiments are performed on a Biacore T200 apparatus, at 25° C. Tested antibody or ADC are captured at low density (300-500 RU) on a CM5 series S sensorchip, beforehand functionalized with a Human Antibody Capture kit (Cytiva cat #BR100839). A functionalized surface/flow cell treated similarly but omitting ligand is used as reference. To measure kinetics rates and affinities, recombinant human FRα (Sino Biological cat #11241-H08H) analyte sample is injected in duplicates at 5 concentrations (0.5, 1, 2, 4, 8 nM) in series using single cycle kinetics strategy and at constant […] flow rate of running buffer (HBS-EP+, Cytiva cat #BR100669) with contact pulses of 300 sec. The dissociation phase is measured by injection of running buffer for 900 sec. Between duplicates, surfaces/flow cells are regenerated with 3M MgCl2 to remove both analyte and ligand, and fresh ligand capture are done using identical conditions. The data analysis is performed using the Biacore Evaluation software after subtraction of reference surface and analyte zero-concentration signals. […]
Surface plasmon resonance (SPR) experiments were performed on a Biacore T200 apparatus, at 25° C. […] The dissociation phase was measured by injection of running buffer for 900 sec. […]

[3] = target: T2, extracellular human FRα expressed on cancerous cell lines (Homo sapiens, UniProt P15328); test: Cell-binding affinity by flow cytometry; settings: APC-labelled antibody or ADC, flow cytometry (FIG. 6)
T2 construct: endogenous in cells; host or cells: human cancer cell lines (ATCC/DSMZ/ECACC); BT-474 as FRα-negative control
Procedure: Antibody or ADC binding to extracellular human FRα expressed on cancerous cell lines is assessed by flow cytometry. Tested antibody or ADC is conjugated to APC fluorophore using LYNX Rapid APC Antibody Conjugation Kit according to the manufacturer's protocol (Bio-Rad, Cat #LNK032APC). Into 500000 cells (suspended in 100 μL of PBS in flow cytometry plastic tubes) is added 5 μL of a 10 μg/mL solution of tested APC-labelled antibody or ADC. Cells are incubated 20 min in the dark, are washed with PBS 3 times by centrifugation and are re-suspended in 200 μL of PBS for analysis. Flow cytometry is performed using a BD Fortessa flow cytometer controlled by BD FACSDiva software (BD Biosciences) and data are analyzed using FlowJo software (BD Bioscience).
Antibody or ADC binding to extracellular human FRα expressed on cancerous cell lines was assessed by flow cytometry. Tested antibody or ADC was conjugated to APC fluorophore using LYNX Rapid APC Antibody Conjugation Kit according to the manufacturer's protocol (Bio-Rad, Cat #LNK032APC). Into 500000 cells (suspended in 100 μL of PBS in flow cytometry plastic tubes) was added 5 μL of a 10 μg/mL solution of tested APC-labelled antibody or ADC. Cells were incubated 20 min in the dark, were washed with PBS 3 times by centrifugation and were re-suspended in 200 μL of PBS for analysis. Flow cytometry was performed using a BD Fortessa flow cytometer controlled by BD FACSDiva software (BD Biosciences) and data were analyzed using FlowJo software (BD Bioscience).

[4] = test system: FRα positive cancerous cell lines; test: In vitro cytotoxicity assay (MTT) on FRα+ cancerous cell lines; assay type: cell-based, Human; settings: 144 hours incubation, several FRα positive cell lines (FIG. 3)
Procedure: In vitro cytotoxicity of compound exatecan mesylate was assessed on several FRα positive cancerous cell lines. Cells were plated in 96-well plates at an appropriate density depending on the cell line (between 1000 and 10000 cells/well in 100 μL of appropriate culture media) and incubated at 37° C. for 24 hours. Serial dilutions of the tested compound previously dissolved in culture media (50 μL) were added, and incubation was carried at 37° C. out for 144 hours. MTT (5 mg/mL, 20 μL, Sigma-Aldrich) was added into the wells, and incubation was continued for 1 to 2 hours at 37° C. Culture media was then carefully removed, and well content was homogeneously dissolved with acidified isopropanol. Absorbance values were measured on a Multiskan™ Sky microplate reader (Thermo Scientific) using a wavelength of 570 nm (with a reference wavelength of 690 nm). The IC50 concentration values compared to untreated control cells were determined using inhibition dose response curve fitting (GraphPad Prism 9).

T2 sequence (P15328 25-234): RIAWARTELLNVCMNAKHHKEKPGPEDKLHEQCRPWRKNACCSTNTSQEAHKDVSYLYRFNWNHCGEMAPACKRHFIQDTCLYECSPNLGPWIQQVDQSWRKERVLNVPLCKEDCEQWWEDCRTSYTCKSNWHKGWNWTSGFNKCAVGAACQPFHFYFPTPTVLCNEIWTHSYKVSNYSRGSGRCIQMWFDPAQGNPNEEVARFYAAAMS
T1 sequence (P15328 25-234): as above

recombinant human FRα binding (ELISA), in words [1]	recombinant human FRα binding (SPR), in words [2]	human FRα cell binding [3]	Substance	IC50's in vitro potencies [4]
No significant loss of binding		binding affinity appeared identical	mirvetuximab: humanized anti-FRα antibody, heavy chain SEQ ID NO:16, light chain SEQ ID NO:17	
			Exatecan Mesylate	sub-nM to low-nM
No loss of binding	No loss of binding	Comparable human FRα cell binding	farletuzumab-LALA: Fc-silent farletuzumab with L234A and L235A mutations, heavy chain SEQ ID NO:9, light chain SEQ ID NO:10	

Substance	recombinant human FRα binding (ELISA), in words [1]	recombinant human FRα binding (SPR), in words [2]	human FRα cell binding [3]	IC50's in vitro potencies [4]
farletuzumab: anti-FRα IgG1 antibody, heavy chain SEQ ID NO:11, light chain SEQ ID NO:10	No loss of binding	No loss of binding	Comparable human FRα cell binding; also recorded: binding affinity appeared identical	
